Experimental findings from paper PMC10663500, “High-throughput analysis system of interaction kinetics for data-driven antibody design” (Scientific Reports, 2023) are described below.

In test [1] the target is T1, human programmed cell death protein 1 (hPD-1) C93S (aa 24-167) (Homo sapiens, UniProt Q15116, C93S).
T1 construct: made as a fusion with a TEV site and human Fc; the Fc was cut off with TEV protease; source: Expi293F, purified (Protein A, TEV cleavage of Fc, SEC; monomer fractions); not shown: Fc (human), C-terminal, cleaved
Put plainly: SPR; Carterra LSA; Fab from the ammonium sulfate precipitate of the culture supernatant immobilised on a NiHC200M chip; hPD-1 (1-1024 nM) or mPD-1-Fc (4-1024 nM) as analyte, fourfold dilution series, no regeneration; HBS-EP pH 7.4, 25 °C; medians over the spots of a construct, KD = koff/kon. The following applies: one partner purified. Summed up: (§1)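 Fabs from Brevibacillus culture supernatants were ammonium sulfate-precipitated, redissolved in HBS-EP and captured in duplicate on a NiHC200M chip (Carterra LSA, 25 °C). Human PD-1 (1–1024 nM) or mouse PD-1-Fc (4–1024 nM) flowed as fourfold series without regeneration, with 10 min association and 5 min dissociation; unconfirmed binders were set to kon 10^3 […], koff 10^−2 s^−1. Rates came from kdka model fits (slow- or fast-dissociation settings, best fit); KD is koff/kon from per-construct medians.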

Test [2] deals with T2, mouse programmed cell death protein 1 Fc fusion protein (mPD-1-Fc), mPD-1 C60S (aa 25-167) (Mus musculus, UniProt Q02242, stabilised).
T2 construct: not cleaved; source: Expi293F, purified (Protein A, SEC; dimeric fraction); not shown: Fc (human), C-terminal, kept
Described as above. The following applies: one partner purified. Summed up:
as §1

T1 sequence (Q15116 24-167 C93S): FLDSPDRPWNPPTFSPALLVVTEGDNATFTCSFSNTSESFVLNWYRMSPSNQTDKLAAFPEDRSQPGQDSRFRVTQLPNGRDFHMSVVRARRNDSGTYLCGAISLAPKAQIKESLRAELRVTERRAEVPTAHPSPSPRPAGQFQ

B1: toripalimab Fab L.V99M (Fab, V domains shown)
VH: QGQLVQSGAEVKKPGASVKVSCKASGYTFTDYEMHWVRQAPIHGLEWIGVIESETGGTAYNQKFKGRVTITADKSTSTAYMELSSLRSEDTAVYYCAREGITTVATTYYWYFDVWGQGTTVTVSS
VL: DVVMTQSPLSLPVTLGQPASISCRSSQSIVHSNGNTYLEWYLQKPGQSPQLLIYKVSNRFSGVPDRFSGSGSGTDFTLKISRVEAEDVGVYYCFQGSHMPLTFGQGTKLEIK
notes: as the heavy chain of Sm3; light chain of Sm3 with this change; numbers count from the chain's first residue; source: Brevibacillus, culture supernatant (ammonium sulfate precipitate); not shown: 6xHis, C-terminal, kept; 6xHN, C-terminal, kept
In test [1], B1 displayed a Kd of 1.43 nM, a koff of 3.17e-05 s⁻¹ and a kon of 22100 M⁻¹ s⁻¹. In test [2], this molecule gave a Kd of 590 nM, a koff of 0.00702 s⁻¹ and a kon of 11900 M⁻¹ s⁻¹.

B2: toripalimab Fab L.P100G (Fab, V domains shown)
VH: QGQLVQSGAEVKKPGASVKVSCKASGYTFTDYEMHWVRQAPIHGLEWIGVIESETGGTAYNQKFKGRVTITADKSTSTAYMELSSLRSEDTAVYYCAREGITTVATTYYWYFDVWGQGTTVTVSS
VL: DVVMTQSPLSLPVTLGQPASISCRSSQSIVHSNGNTYLEWYLQKPGQSPQLLIYKVSNRFSGVPDRFSGSGSGTDFTLKISRVEAEDVGVYYCFQGSHVGLTFGQGTKLEIK
notes: as for B1
In test [1], B2 yielded a dissociation constant (Kd) of 4.99 nM, a koff of 3.76e-05 s⁻¹ and a kon of 7550 M⁻¹ s⁻¹. In test [2], this molecule had a Kd of 22.8 nM, a koff of 0.000384 s⁻¹ and a kon of 16800 M⁻¹ s⁻¹.

B3: toripalimab Fab L.V99Y (Fab, V domains shown)
VH: QGQLVQSGAEVKKPGASVKVSCKASGYTFTDYEMHWVRQAPIHGLEWIGVIESETGGTAYNQKFKGRVTITADKSTSTAYMELSSLRSEDTAVYYCAREGITTVATTYYWYFDVWGQGTTVTVSS
VL: DVVMTQSPLSLPVTLGQPASISCRSSQSIVHSNGNTYLEWYLQKPGQSPQLLIYKVSNRFSGVPDRFSGSGSGTDFTLKISRVEAEDVGVYYCFQGSHYPLTFGQGTKLEIK
notes: as for B1
Turning to B3, in test [1], binding was characterised by a dissociation constant (Kd) of 5.01 nM, the koff amounted to 0.000155 s⁻¹ and the kon came out at 30900 M⁻¹ s⁻¹. In test [2], the Kd is 576 nM, the koff came to 0.0369 s⁻¹ and the kon amounted to 63900 M⁻¹ s⁻¹.

B4: toripalimab Fab L.P100A (Fab, V domains shown)
VH: QGQLVQSGAEVKKPGASVKVSCKASGYTFTDYEMHWVRQAPIHGLEWIGVIESETGGTAYNQKFKGRVTITADKSTSTAYMELSSLRSEDTAVYYCAREGITTVATTYYWYFDVWGQGTTVTVSS
VL: DVVMTQSPLSLPVTLGQPASISCRSSQSIVHSNGNTYLEWYLQKPGQSPQLLIYKVSNRFSGVPDRFSGSGSGTDFTLKISRVEAEDVGVYYCFQGSHVALTFGQGTKLEIK
notes: as for B1
In test [1], B4 returned a Kd of under 0.513 nM, a koff of under 1e-05 s⁻¹ and a kon of 19500 M⁻¹ s⁻¹. In test [2], this molecule had a Kd of 89.8 nM, a koff of 0.00349 s⁻¹ and a kon of 38900 M⁻¹ s⁻¹.

B5: toripalimab Fab L.P100E (Fab, V domains shown)
VH: QGQLVQSGAEVKKPGASVKVSCKASGYTFTDYEMHWVRQAPIHGLEWIGVIESETGGTAYNQKFKGRVTITADKSTSTAYMELSSLRSEDTAVYYCAREGITTVATTYYWYFDVWGQGTTVTVSS
VL: DVVMTQSPLSLPVTLGQPASISCRSSQSIVHSNGNTYLEWYLQKPGQSPQLLIYKVSNRFSGVPDRFSGSGSGTDFTLKISRVEAEDVGVYYCFQGSHVELTFGQGTKLEIK
notes: as for B1
In the case of B5, in test [1], the Kd is under 0.554 nM, the koff was under 1e-05 s⁻¹ and the kon turned out to be 18100 M⁻¹ s⁻¹. For the same molecule, in test [2], binding was put at a Kd of 19.8 nM, the koff turned out to be 0.000491 s⁻¹ and the kon worked out at 24800 M⁻¹ s⁻¹.

B6: toripalimab Fab L.V99W (Fab, V domains shown)
VH: QGQLVQSGAEVKKPGASVKVSCKASGYTFTDYEMHWVRQAPIHGLEWIGVIESETGGTAYNQKFKGRVTITADKSTSTAYMELSSLRSEDTAVYYCAREGITTVATTYYWYFDVWGQGTTVTVSS
VL: DVVMTQSPLSLPVTLGQPASISCRSSQSIVHSNGNTYLEWYLQKPGQSPQLLIYKVSNRFSGVPDRFSGSGSGTDFTLKISRVEAEDVGVYYCFQGSHWPLTFGQGTKLEIK
notes: as for B1
In test [1], B6 displayed a Kd of 45.3 nM, a koff of 0.000522 s⁻¹ and a kon of 11500 M⁻¹ s⁻¹. Further, in test [2], binding was put at a Kd of 254 nM, the koff is 0.0065 s⁻¹ and the kon worked out at 25600 M⁻¹ s⁻¹.

B7: toripalimab Fab L.P100D (Fab, V domains shown)
VH: QGQLVQSGAEVKKPGASVKVSCKASGYTFTDYEMHWVRQAPIHGLEWIGVIESETGGTAYNQKFKGRVTITADKSTSTAYMELSSLRSEDTAVYYCAREGITTVATTYYWYFDVWGQGTTVTVSS
VL: DVVMTQSPLSLPVTLGQPASISCRSSQSIVHSNGNTYLEWYLQKPGQSPQLLIYKVSNRFSGVPDRFSGSGSGTDFTLKISRVEAEDVGVYYCFQGSHVDLTFGQGTKLEIK
notes: as for B1
On to B7, for which, in test [1], the Kd is under 1.32 nM, the koff is under 1e-05 s⁻¹ and the kon came to 7580 M⁻¹ s⁻¹. Further, in test [2], the Kd worked out at 47.4 nM, the koff came to 0.00142 s⁻¹ and the kon was determined as 30100 M⁻¹ s⁻¹.

B8: toripalimab Fab L.V99N (Fab, V domains shown)
VH: QGQLVQSGAEVKKPGASVKVSCKASGYTFTDYEMHWVRQAPIHGLEWIGVIESETGGTAYNQKFKGRVTITADKSTSTAYMELSSLRSEDTAVYYCAREGITTVATTYYWYFDVWGQGTTVTVSS
VL: DVVMTQSPLSLPVTLGQPASISCRSSQSIVHSNGNTYLEWYLQKPGQSPQLLIYKVSNRFSGVPDRFSGSGSGTDFTLKISRVEAEDVGVYYCFQGSHNPLTFGQGTKLEIK
notes: as for B1
In test [1], B8 gave a dissociation constant Kd of 3.03 nM, a koff of 5.61e-05 s⁻¹ and a kon of 18500 M⁻¹ s⁻¹. In test [2], this molecule displayed a Kd of 169 nM, a koff of 0.00665 s⁻¹ and a kon of 39400 M⁻¹ s⁻¹.

B9: toripalimab Fab L.V99Q (Fab, V domains shown)
VH: QGQLVQSGAEVKKPGASVKVSCKASGYTFTDYEMHWVRQAPIHGLEWIGVIESETGGTAYNQKFKGRVTITADKSTSTAYMELSSLRSEDTAVYYCAREGITTVATTYYWYFDVWGQGTTVTVSS
VL: DVVMTQSPLSLPVTLGQPASISCRSSQSIVHSNGNTYLEWYLQKPGQSPQLLIYKVSNRFSGVPDRFSGSGSGTDFTLKISRVEAEDVGVYYCFQGSHQPLTFGQGTKLEIK
notes: as for B1
In test [1], B9 yielded a Kd of 8.06 nM, a koff of 6.39e-05 s⁻¹ and a kon of 7930 M⁻¹ s⁻¹. In test [2], this molecule gave a Kd of 445 nM, a koff of 0.0167 s⁻¹ and a kon of 37600 M⁻¹ s⁻¹.

B10: toripalimab Fab L.P100F (Fab, V domains shown)
VH: QGQLVQSGAEVKKPGASVKVSCKASGYTFTDYEMHWVRQAPIHGLEWIGVIESETGGTAYNQKFKGRVTITADKSTSTAYMELSSLRSEDTAVYYCAREGITTVATTYYWYFDVWGQGTTVTVSS
VL: DVVMTQSPLSLPVTLGQPASISCRSSQSIVHSNGNTYLEWYLQKPGQSPQLLIYKVSNRFSGVPDRFSGSGSGTDFTLKISRVEAEDVGVYYCFQGSHVFLTFGQGTKLEIK
notes: as for B1
In test [1], B10 yielded a Kd of 9 nM, a koff of 6.35e-05 s⁻¹ and a kon of 7060 M⁻¹ s⁻¹. In addition, in test [2], the Kd is under 1.08 nM, the koff is under 1e-05 s⁻¹ and the kon worked out at 9270 M⁻¹ s⁻¹.

B11: toripalimab Fab H.E52Y (Fab, V domains shown)
VH: QGQLVQSGAEVKKPGASVKVSCKASGYTFTDYEMHWVRQAPIHGLEWIGVIYSETGGTAYNQKFKGRVTITADKSTSTAYMELSSLRSEDTAVYYCAREGITTVATTYYWYFDVWGQGTTVTVSS
VL: DVVMTQSPLSLPVTLGQPASISCRSSQSIVHSNGNTYLEWYLQKPGQSPQLLIYKVSNRFSGVPDRFSGSGSGTDFTLKISRVEAEDVGVYYCFQGSHVPLTFGQGTKLEIK
notes: heavy chain of Sm3 with this change; numbers count from the chain's first residue; as the light chain of Sm3; source: Brevibacillus, culture supernatant (ammonium sulfate precipitate); not shown: 6xHis, C-terminal, kept; 6xHN, C-terminal, kept
On to B11, for which, in test [1], the Kd turned out to be 49.4 nM, the koff was determined as 0.000629 s⁻¹ and the kon was 12700 M⁻¹ s⁻¹. In addition, in test [2], binding was put at a Kd of 600 nM, the koff amounted to 0.149 s⁻¹ and the kon was 247000 M⁻¹ s⁻¹.

B12: toripalimab Fab L.V99S (Fab, V domains shown)
VH: QGQLVQSGAEVKKPGASVKVSCKASGYTFTDYEMHWVRQAPIHGLEWIGVIESETGGTAYNQKFKGRVTITADKSTSTAYMELSSLRSEDTAVYYCAREGITTVATTYYWYFDVWGQGTTVTVSS
VL: DVVMTQSPLSLPVTLGQPASISCRSSQSIVHSNGNTYLEWYLQKPGQSPQLLIYKVSNRFSGVPDRFSGSGSGTDFTLKISRVEAEDVGVYYCFQGSHSPLTFGQGTKLEIK
notes: as for B1
In test [1], B12 gave a Kd of under 1.16 nM, a koff of under 1e-05 s⁻¹ and a kon of 8660 M⁻¹ s⁻¹. In test [2], binding was characterised by a dissociation constant (Kd) of 4.51 nM, the koff stood at 6.95e-05 s⁻¹ and the kon was 15400 M⁻¹ s⁻¹.

B13: toripalimab Fab L.V99P (Fab, V domains shown)
VH: QGQLVQSGAEVKKPGASVKVSCKASGYTFTDYEMHWVRQAPIHGLEWIGVIESETGGTAYNQKFKGRVTITADKSTSTAYMELSSLRSEDTAVYYCAREGITTVATTYYWYFDVWGQGTTVTVSS
VL: DVVMTQSPLSLPVTLGQPASISCRSSQSIVHSNGNTYLEWYLQKPGQSPQLLIYKVSNRFSGVPDRFSGSGSGTDFTLKISRVEAEDVGVYYCFQGSHPPLTFGQGTKLEIK
notes: as for B1
Regarding B13, in test [1], the Kd amounted to 19.8 nM, the koff is 0.000192 s⁻¹ and the kon was 9660 M⁻¹ s⁻¹. Moreover, in test [2], the Kd came out at 24.7 nM, the koff was 0.0007 s⁻¹ and the kon stood at 28300 M⁻¹ s⁻¹.

For orientation: Kd means a measure of binding affinity in units of concentration. Higher therefore signals a looser complex. The term koff denotes the rate constant with which the complex falls apart. A low value points to slow dissociation. What is called kon is the second-order rate constant of association.
